Measurements from the supplement of paper PMC9170038.

Tested on: MS2 coat protein
Assay: apparent KD of MS2 coat protein; designed switch direction (-1 OFF switch, 1 ON switch): -1; higher = weaker reporter binding
Summary of the method: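 Transcription of designed RNA switches on Illumina chips was done by stalled E. coli RNA polymerase. SNAP-549-labelled MS2 coat protein was then titrated in doubling steps from 0.7 or 1.5 nM to 3 µM, with steps of 0.8–1.5 h at the lowest and 10–20 min at the highest concentration. The per-design median over clusters of curve-fitted normalised fluorescence is reported as apparent KD.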

[1] = Eterna round: R95, input ligand: FMN 200 uM
[2] = Eterna round: R95, input ligand: microRNA oligo, concentration not stated
[3] = Eterna round: R95, input ligand: none
[4] = input ligand: microRNA oligo, concentration not stated

Sequence | apparent KD of MS2 coat protein (input ligand: FMN 200 uM) [nM] | apparent KD of MS2 coat protein (input ligand: none) [nM] | apparent KD of MS2 coat protein [2] [nM] | further results
ACCUGGUGAGGAUAUGUUGGGAAUGAUCCUUUCGGAUUGACACAGAAGGCACAUGAGGAUCACCCAUGUGGGUG [Eternabot (L1) Solution 70] (Eterna round: R97, puzzle: Exclusion 4) | 332 | 591 |  | 
AUGUGGGUAAGAAGGUGAAGAUAGAGCGUACGUUAUGGAACAUGAGGAUCACCCAUGUAGCUUUUUGCUCGUCUUAU [JR_SV3TOV2_Sub033] (puzzle: Sensor v3, turn-off variant 2) |  |  | 61.8 | apparent KD of MS2 coat protein [1]: 17.6 nM; apparent KD of MS2 coat protein [3]: 18.2 nM
CAGCUGAAUGUCAGGAUAUCUAGAGCCUCGGCUCUAGAGAAGGGACAUGAGGAUCACCCAUGUCACUCCAGCUG [BmEx4/3-B2] (Eterna round: R97, puzzle: Brourd's mod of Exclusion 4) | 22.4 | 17.8 |  | 
UGGCUUUGAGGAUAUACAUUGAAUAAGAUUCAUGUAAAACUACAUGAGGAUCACCCAUGUAGAAGGCAAGGCCU [Mat - Exclusion 2 - JL Mod - D74] (Eterna round: R97, puzzle: Exclusion 2) | 26.9 | 16 |  | 
UCACGGGACUGAGGAUAUACAUCAACCAUGGUUGUAGAAGGCAGAAGGUUGGAUCAUAUACUAAACAUGAGGAUCACCCAUGUU [JR_ExcNG1_Sub030] (Eterna round: R96, puzzle: Exclusion NG 1) | 23.6 | 20.7 |  | apparent KD of MS2 coat protein [4]: 19.9 nM
GCUAUGACUGUGAGGAUAUGGACCGGGCUCUCGGAUUAGAAGGCACAUGAGGAUCACCCAUGUGAUCACGUACU [Eternabot (L2) Solution 87] (Eterna round: R97, puzzle: Brourd's mod of Exclusion 4) | 42.2 | 27.5 |  | 
UAUAUAUAGUAAGGAUAUGUAAUUAUCUUAUAAACAGAAGGUACUGACAUGAGGAUCACCCAUGUUUUAGUGUGGGCAUGUAGA [JMF's solution 39] (Eterna round: R96, puzzle: Exclusion NG 1) |  |  |  | apparent KD of MS2 coat protein [4]: 49.8 nM
AAUCUUCUAGGAUAUAUAUGGUAGCGGGAGAACCCAGUCACACAUGAGGAUCACCCAUGUAGAAGGAGAAUAGG [Eternabot (L1) Solution 87] (Eterna round: R97, puzzle: Exclusion 2) | 107 | 99.7 |  | 
AGAUGUAGAUACCGAUCCUACAUGAGGAUCACCCAUGUAGCUAGACGUGCACGCGUAGCUCGUCAGACUACCAGUAG [salish99_TOv1_r3_086] (puzzle: Sensor v3, turn-off variant 1) |  |  | 336 | apparent KD of MS2 coat protein [1]: 372 nM; apparent KD of MS2 coat protein [3]: 363 nM
UCUUUAUUUGUGAGGAUAUCGAUAAAAUGGAUUGUCGAGAAGGCACAUGAGGAUCACCCAUGUGUGGAACAGCA [JR_BMEx4_Sub024] (Eterna round: R97, puzzle: Brourd's mod of Exclusion 4) | 54.8 | 18.8 |  | 
CCCAGUUAGAGAGGAUAUCGUACAUGAGGAUCACCCAUGUAAUAAAUGAGGAUUUCGGGUGUCUACGAGAAGGCUCGGAUAGGC [Ostracism 30 - Jieux - Exclusion NG 2] (Eterna round: R96, puzzle: Exclusion NG 2) | 75.8 | 35.9 |  | apparent KD of MS2 coat protein [4]: 27.1 nM
UUCGAGGCAGGAUAUGCGUAGCCACGGAGGAUCACCAAGUAACAUGAGGAUCACCCAUGUAGAAGGGCUAGAGC [Eternabot (L1) Solution 26] (Eterna round: R97, puzzle: Exclusion 2) | 60.1 | 76.4 |  | 
UUAUUUAGUGUGAGGAUAUGCUGGUCCAUAGAUCAGCAGAAGGCACAUGAGGAUCACCCAUGUAAUAUAUUAAU [Mat - Exclusion 4 - JL Mod - D32] (puzzle: Brourd's mod of Exclusion 4) |  |  | 25.2 | 
UCAUGUCCUGAGGAUAUGUAGCGGAUAAACGCAACAGAAGGCAGGACAUGAGGAUCACCCAUGUGCGCCUUUCA [Exclusion 6 Mod2 of JL of Mod of Letion by ViennaUCT] (Eterna round: R97, puzzle: Exclusion 6) | 26.7 | 84.5 |  | 
CUAAUUAGAGGAUAUACAUGAGGAUCACCCAUGUUCUUCAAGUCGCCAACGGCAUAACGUAGAAGGCUGAGUGG [Eternabot (L1) Solution 32] (Eterna round: R97, puzzle: Exclusion 3) | 26.4 | 25.8 |  | 
UAAUUAAGUGUGAGGAUAUGCUGGUCCUUGGAUCAGCAGAAGGCACAUGAGGAUCACCCAUGUAAUUUAUUUAU [JL bmx4 3.10] (puzzle: Brourd's mod of Exclusion 4) |  |  | 78.5 | 
GGCAUGUAAGGAUAUGCCACUGAGUGCUUUGCGCUCAGAAAGCAGAAGGUACAUGAGGAUCACCCAUGUGAUAA [jl-ex4-4.53 ViennaUCT mod] (Eterna round: R97, puzzle: Exclusion 4) | 945 | 650 |  | 

Sequence | apparent KD of MS2 coat protein (input ligand: FMN 200 uM) [nM] | apparent KD of MS2 coat protein (input ligand: none) [nM] | apparent KD of MS2 coat protein [2] [nM] | further results
GAGUGACAUGAGGAUCACCCAUGUGAGGAUAUCGGACGGACCUAGUUAACUUCCGCCGCGAGAAGGCACAUCGG [Exclusion 1 V23] (Eterna round: R96, puzzle: Exclusion 1) | 75.2 | 84 |  | apparent KD of MS2 coat protein [4]: 45.6 nM
CUCUUGUUAGGAUAUCAAACUGGCGGCGGAGCCGGCAGUAGUGAGAAGGGACAUGAGGAUCACCCAUGUAAGAA [Veeder] (puzzle: Exclusion 4) |  |  | 55.1 | 
AAUUCGAGAGGAUAUACAGGUGAUAUGUAGAAGCCUCGAGCACAUGAGGAUCACCCAUGUAGAAGGCUCAUAUA [EX2 A.11] (Eterna round: R97, puzzle: Exclusion 2) | 262 | 29.6 |  | 
GUAAUUAAUGUAGGAUAUGCAAGGCGAACCUAAGCAGAAGGACAUGAGGAUCACCCAUGUAUUGCGGUCUGCGUACAGAUCGCU [salish99_ExNG1_r4_008] (Eterna round: R96, puzzle: Exclusion NG 1) | 45.7 | 19.9 |  | apparent KD of MS2 coat protein [4]: 18.5 nM
UAUUAUCAAGCAAGAUCCCACAUGAGGAUCACCCAUGUGCUCGUCUUAUUUCUGUCCUUAUUGUUCUCUCGUCUAAU [JR_STOV1_v2_Sub096] (Eterna round: R97, puzzle: Sensor, turn-off variant 1) | 41.8 | 39.9 |  | 
GGUACUAACACGAUAGUGUUAGUACAAUAAGCUUGUGUUACAUGAGGAUCACCCAUGUCCUCAUAAGCUCGUCUUAU [Mat - Sensor v3 - Turn-off var 2 - D56] (puzzle: Sensor v3, turn-off variant 2) |  |  | 102 | apparent KD of MS2 coat protein [1]: 117 nM; apparent KD of MS2 coat protein [3]: 108 nM
UUAUAACAUGUAGGAUAUGCGUGGCGAAGCUAUGCAGAAGGACAUGAGGAUCACCCAUGUUCCUGCGUCCGCGUACGGAUGCAA [JL Eng1 1.21 mod 1] (Eterna round: R96, puzzle: Exclusion NG 1) | 34.1 | 14.3 |  | apparent KD of MS2 coat protein [4]: 14.1 nM
UGCAUGGUAGGAUAUACGGAACAUUAGGGUUUGUUGUGUGGACAUGAGGAUCACCCAUGUAGAAGGGCCGUGCU [JL-ex2-2.15 mat747 mod] (puzzle: Exclusion 2) |  |  | 40.4 | 
UAGAUGGGAGGAUAUGCGUAGAUGCAGGUUCGUGUGGUGCUACAUGAGGAUCACCCAUGUAGAAGGCCCGUCUU [Mod 7 R3 JL-ex2-2.29 - Jieux - Exclusion 2] (Eterna round: R97, puzzle: Exclusion 2) | 20.7 | 17.6 |  | 
AGAUGGCGAGGAUAUACAUGAGGAUCACCCAUGUGAGAAGAAGAAGUGAGGAAGAAAAGUAGAAGGCGCUGUCA [Mat - Exclusion 3 - Mod of Salish D20] (puzzle: Exclusion 3) |  |  | 50.3 | apparent KD of MS2 coat protein [1]: 145 nM; apparent KD of MS2 coat protein [3]: 44.9 nM
UUUGAUUAUGUGAGGAUAUACUGUUUGUAUUGAUUGUAGAAGGUACAUGAGGAUCACCCAUGUUUUGUAUUUAU [JR_BME4_Sub036] (puzzle: Brourd's mod of Exclusion 4) |  |  | 17.1 | 
ACUAGAUGAGGAUAUACACAUUUUAGUGUUCCUCUAGAUUAACAUGAGGAUCACCCAUGUAGAAGGCAUCAAUU [Exclusion 2 - 11] (Eterna round: R96, puzzle: Exclusion 2) | 294 | 63 |  | apparent KD of MS2 coat protein [4]: 52.8 nM
GGCAAUAACGAGGAUAUCGUAUGGGAAACCAUACGAGAAGGUGUAACAUGAGGAUCACCCAUGUUCCUCAAGCC [Mat - Exclusion 6 - Eli Mod - D66] (puzzle: Exclusion 6) |  |  | 34.6 | apparent KD of MS2 coat protein [1]: 35.3 nM; apparent KD of MS2 coat protein [3]: 40 nM
ACUAGAUGAGGAUAUACACAUUUUAGUGUUCCUCUAGAUUAACAUGAGGAUCACCCAUGUAGAAGGCAUCAAUU [Exclusion 2 - 11] (puzzle: Exclusion 2) |  |  | 57.8 | 
AGCUGUGGCCGAGGAUAUCUGAAAACUCAAACCGAAAUAUAAUCGGACAUGAGGAUCACCCAUGUAGAGAAGGCGGUCUCAGCA [Eli eng2 - 062] (Eterna round: R96, puzzle: Exclusion NG 2) |  |  |  | apparent KD of MS2 coat protein [4]: 45.7 nM
CUCGUGUAAGGAUAUGUACCGACACCGCUAAAGCGGCUCCGACAGAAGGUACAUGAGGAUCACCCAUGUACUGC [EX4 B.2] (Eterna round: R97, puzzle: Exclusion 4) | 25.9 | 20.3 |  | 
GGGAAGAACCAACAAGUAUACAUGAGGAUCACCCAUGUUCCUAGUGGGUAUGUAAAGAUUAAGAGAGCUCGUCUUAU [AK-miRNA-r3-10] (Eterna round: R97, puzzle: Sensor, turn-off variant 1) | 66.9 | 75.3 |  | 
